Reference: the supplement of paper PMC10266784

B1: library; numbered along this chain (parent)
chain: MAAAAAAAAEQQSSNGPVKKSMREKAVERRSVNKEHNSNFKAGYIPIDEDRLHKTGLRGRKGNLAICVIILLFILAVINLIITLVIWAVIRIGPNGCDSMEFHESGLLRFKQVSDMGVIHPLYKSTVGGRRNENLVITGNNQPIVFQQGTTKLSVENNKTSITSDIGMQFFDPRTQNILFSTDYETHEFHLPSGVKSLNVQKASTERITSNATSDLNIKVDGRAIVRGNEGVFIMGKTIEFHMGGNMELKAENSIILNGSVMVSTTRLPSSSSGDQLGSGDWVRYKLCMCADGTLFKVQVTSQNMGCQISDNPCGNTH

Variants of: B1
Test: SGCB cell-surface expression functional score (HA stain, bin4 vs bin1, normalised to synonymous) (log10 ratio); higher = more cell-surface SGCB (functional)
In short: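 HEK293 cells stably expressing alpha-, gamma- and delta-sarcoglycan received codon-saturation libraries of HA-tagged, YFP-fused human beta-sarcoglycan by lentiviral transduction at MOI <0.1, performed in duplicate. Cells positive for YFP were sorted after 72 hours and cultured for 5–7 days, then stained on ice with Alexa Fluor 647 anti-HA and fixed. Fixed cells were sorted into four 5% intensity bins and amplicon-sequenced, and the log ratio of highest-bin to lowest-bin variant frequency, as a median over codons and transductions, gives the functional score. Per section, synonymous variants were scaled to mean 0, SD 0.5.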

Variant | SGCB cell-surface expression functional score (log10)
MAAAAAAAAEQQSSNGPVKKSMREKAVERRSVNKEHNSNFKAGYIPIDEDRLHKTGLRGRKGNLAICVIILLFILAVINLIITLVIWAVIRIGPNGCDSMEFHESGLLRFKQVSDMGVIHPLYKSTVGGRRNENLVITGNNQPIVFQQGTTKLSVENNKTSITSDIGMQFFDPRTQNILFSTDYETHEFHLPSGVKSLNVQKASTERITSNATSDLNIKVDGRAIVRGNEGVFIMFKTIEFHMGGNMELKAENSIILNGSVMVSTTRLPSSSSGDQLGSGDWVRYKLCMCADGTLFKVQVTSQNMGCQISDNPCGNTH [G236F] | -1.96
MAAAAAAAAEQQSSNGPVKKSMREKAVERRSVNKEHNSNFKAGYIPIDEDRLHKTGLRGRKGNLAICVIILLFILAVINLIITLVIWAVIRIGPNGCDSMEFHESGLLRFKQVSDMGVIHPLYKSTVGGRRNENLVITGNNQPIVFQQGTTKLSVENNKTSITSDIGMQFFDPRTQNILFSTDYETHEFHLPSGVKSLNVQKASTERITSNATSDLNIKVDGRAIVRGNEGVFIMDKTIEFHMGGNMELKAENSIILNGSVMVSTTRLPSSSSGDQLGSGDWVRYKLCMCADGTLFKVQVTSQNMGCQISDNPCGNTH [G236D] | -0.43
MAAAAAAAAEQQSSNGPVKKSMREKAVERRSVNKEHNSNFKAGYIPIDEDRLHKTGLRGRKGNLAICVIILLFILAVINLIITLVIWAVIRIGPNGCDSMEFHESGLLRFKQVSDMGVIHPLYKSTVGGRRNENLVITGNNQPIVFQQGTTKLSVENNKTSITSDIGMQFFDPRTQNILFSTDYETHEFHLPSGVKSLNVQKASTERITSNATSDLNIKVDGRAIVRGNEGVFIMHKTIEFHMGGNMELKAENSIILNGSVMVSTTRLPSSSSGDQLGSGDWVRYKLCMCADGTLFKVQVTSQNMGCQISDNPCGNTH [G236H] | -1.67
MAAAAAAAAEQQSSNGPVKKSMREKAVERRSVNKEHNSNFKAGYIPIDEDRLHKTGLRGRKGNLAICVIILLFILAVINLIITLVIWAVIRIGPNGCDSMEFHESGLLRFKQVSDMGVIHPLYKSTVGGRRNENLVITGNNQPIVFQQGTTKLSVENNKTSITSDIGMQFFDPRTQNILFSTDYETHEFHLPSGVKSLNVQKASTERITSNATSDLNIKVDGRAIVRGNEGVFIMKKTIEFHMGGNMELKAENSIILNGSVMVSTTRLPSSSSGDQLGSGDWVRYKLCMCADGTLFKVQVTSQNMGCQISDNPCGNTH [G236K] | -2
MAAAAAAAAEQQSSNGPVKKSMREKAVERRSVNKEHNSNFKAGYIPIDEDRLHKTGLRGRKGNLAICVIILLFILAVINLIITLVIWAVIRIGPNGCDSMEFHESGLLRFKQVSDMGVIHPLYKSTVGGRRNENLVITGNNQPIVFQQGTTKLSVENNKTSITSDIGMQFFDPRTQNILFSTDYETHEFHLPSGVKSLNVQKASTERITSNATSDLNIKVDGRAIVRGNEGVFIMEKTIEFHMGGNMELKAENSIILNGSVMVSTTRLPSSSSGDQLGSGDWVRYKLCMCADGTLFKVQVTSQNMGCQISDNPCGNTH [G236E] | -1.08
MAAAAAAAAEQQSSNGPVKKSMREKAVERRSVNKEHNSNFKAGYIPIDEDRLHKTGLRGRKGNLAICVIILLFILAVINLIITLVIWAVIRIGPNGCDSMEFHESGLLRFKQVSDMGVIHPLYKSTVGGRRNENLVITGNNQPIVFQQGTTKLSVENNKTSITSDIGMQFFDPRTQNILFSTDYETHEFHLPSGVKSLNVQKASTERITSNATSDLNIKVDGRAIVRGNEGVFIMSKTIEFHMGGNMELKAENSIILNGSVMVSTTRLPSSSSGDQLGSGDWVRYKLCMCADGTLFKVQVTSQNMGCQISDNPCGNTH [G236S] | -0.08
MAAAAAAAAEQQSSNGPVKKSMREKAVERRSVNKEHNSNFKAGYIPIDEDRLHKTGLRGRKGNLAICVIILLFILAVINLIITLVIWAVIRIGPNGCDSMEFHESGLLRFKQVSDMGVIHPLYKSTVGGRRNENLVITGNNQPIVFQQGTTKLSVENNKTSITSDIGMQFFDPRTQNILFSTDYETHEFHLPSGVKSLNVQKASTERITSNATSDLNIKVDGRAIVRGNEGVFIMAKTIEFHMGGNMELKAENSIILNGSVMVSTTRLPSSSSGDQLGSGDWVRYKLCMCADGTLFKVQVTSQNMGCQISDNPCGNTH [G236A] | 0.11
MAAAAAAAAEQQSSNGPVKKSMREKAVERRSVNKEHNSNFKAGYIPIDEDRLHKTGLRGRKGNLAICVIILLFILAVINLIITLVIWAVIRIGPNGCDSMEFHESGLLRFKQVSDMGVIHPLYKSTVGGRRNENLVITGNNQPIVFQQGTTKLSVENNKTSITSDIGMQFFDPRTQNILFSTDYETHEFHLPSGVKSLNVQKASTERITSNATSDLNIKVDGRAIVRGNEGVFIMPKTIEFHMGGNMELKAENSIILNGSVMVSTTRLPSSSSGDQLGSGDWVRYKLCMCADGTLFKVQVTSQNMGCQISDNPCGNTH [G236P] | -1.06
MAAAAAAAAEQQSSNGPVKKSMREKAVERRSVNKEHNSNFKAGYIPIDEDRLHKTGLRGRKGNLAICVIILLFILAVINLIITLVIWAVIRIGPNGCDSMEFHESGLLRFKQVSDMGVIHPLYKSTVGGRRNENLVITGNNQPIVFQQGTTKLSVENNKTSITSDIGMQFFDPRTQNILFSTDYETHEFHLPSGVKSLNVQKASTERITSNATSDLNIKVDGRAIVRGNEGVFIMMKTIEFHMGGNMELKAENSIILNGSVMVSTTRLPSSSSGDQLGSGDWVRYKLCMCADGTLFKVQVTSQNMGCQISDNPCGNTH [G236M] | -2.18
MAAAAAAAAEQQSSNGPVKKSMREKAVERRSVNKEHNSNFKAGYIPIDEDRLHKTGLRGRKGNLAICVIILLFILAVINLIITLVIWAVIRIGPNGCDSMEFHESGLLRFKQVSDMGVIHPLYKSTVGGRRNENLVITGNNQPIVFQQGTTKLSVENNKTSITSDIGMQFFDPRTQNILFSTDYETHEFHLPSGVKSLNVQKASTERITSNATSDLNIKVDGRAIVRGNEGVFIMRKTIEFHMGGNMELKAENSIILNGSVMVSTTRLPSSSSGDQLGSGDWVRYKLCMCADGTLFKVQVTSQNMGCQISDNPCGNTH [G236R] | -1.3
MAAAAAAAAEQQSSNGPVKKSMREKAVERRSVNKEHNSNFKAGYIPIDEDRLHKTGLRGRKGNLAICVIILLFILAVINLIITLVIWAVIRIGPNGCDSMEFHESGLLRFKQVSDMGVIHPLYKSTVGGRRNENLVITGNNQPIVFQQGTTKLSVENNKTSITSDIGMQFFDPRTQNILFSTDYETHEFHLPSGVKSLNVQKASTERITSNATSDLNIKVDGRAIVRGNEGVFIMTKTIEFHMGGNMELKAENSIILNGSVMVSTTRLPSSSSGDQLGSGDWVRYKLCMCADGTLFKVQVTSQNMGCQISDNPCGNTH [G236T] | -0.62
MAAAAAAAAEQQSSNGPVKKSMREKAVERRSVNKEHNSNFKAGYIPIDEDRLHKTGLRGRKGNLAICVIILLFILAVINLIITLVIWAVIRIGPNGCDSMEFHESGLLRFKQVSDMGVIHPLYKSTVGGRRNENLVITGNNQPIVFQQGTTKLSVENNKTSITSDIGMQFFDPRTQNILFSTDYETHEFHLPSGVKSLNVQKASTERITSNATSDLNIKVDGRAIVRGNEGVFIMQKTIEFHMGGNMELKAENSIILNGSVMVSTTRLPSSSSGDQLGSGDWVRYKLCMCADGTLFKVQVTSQNMGCQISDNPCGNTH [G236Q] | 0.48
MAAAAAAAAEQQSSNGPVKKSMREKAVERRSVNKEHNSNFKAGYIPIDEDRLHKTGLRGRKGNLAICVIILLFILAVINLIITLVIWAVIRIGPNGCDSMEFHESGLLRFKQVSDMGVIHPLYKSTVGGRRNENLVITGNNQPIVFQQGTTKLSVENNKTSITSDIGMQFFDPRTQNILFSTDYETHEFHLPSGVKSLNVQKASTERITSNATSDLNIKVDGRAIVRGNEGVFIMCKTIEFHMGGNMELKAENSIILNGSVMVSTTRLPSSSSGDQLGSGDWVRYKLCMCADGTLFKVQVTSQNMGCQISDNPCGNTH [G236C] | -1.64
MAAAAAAAAEQQSSNGPVKKSMREKAVERRSVNKEHNSNFKAGYIPIDEDRLHKTGLRGRKGNLAICVIILLFILAVINLIITLVIWAVIRIGPNGCDSMEFHESGLLRFKQVSDMGVIHPLYKSTVGGRRNENLVITGNNQPIVFQQGTTKLSVENNKTSITSDIGMQFFDPRTQNILFSTDYETHEFHLPSGVKSLNVQKASTERITSNATSDLNIKVDGRAIVRGNEGVFIMIKTIEFHMGGNMELKAENSIILNGSVMVSTTRLPSSSSGDQLGSGDWVRYKLCMCADGTLFKVQVTSQNMGCQISDNPCGNTH [G236I] | -1.64
MAAAAAAAAEQQSSNGPVKKSMREKAVERRSVNKEHNSNFKAGYIPIDEDRLHKTGLRGRKGNLAICVIILLFILAVINLIITLVIWAVIRIGPNGCDSMEFHESGLLRFKQVSDMGVIHPLYKSTVGGRRNENLVITGNNQPIVFQQGTTKLSVENNKTSITSDIGMQFFDPRTQNILFSTDYETHEFHLPSGVKSLNVQKASTERITSNATSDLNIKVDGRAIVRGNEGVFIMNKTIEFHMGGNMELKAENSIILNGSVMVSTTRLPSSSSGDQLGSGDWVRYKLCMCADGTLFKVQVTSQNMGCQISDNPCGNTH [G236N] | -1.82
MAAAAAAAAEQQSSNGPVKKSMREKAVERRSVNKEHNSNFKAGYIPIDEDRLHKTGLRGRKGNLAICVIILLFILAVINLIITLVIWAVIRIGPNGCDSMEFHESGLLRFKQVSDMGVIHPLYKSTVGGRRNENLVITGNNQPIVFQQGTTKLSVENNKTSITSDIGMQFFDPRTQNILFSTDYETHEFHLPSGVKSLNVQKASTERITSNATSDLNIKVDGRAIVRGNEGVFIMLKTIEFHMGGNMELKAENSIILNGSVMVSTTRLPSSSSGDQLGSGDWVRYKLCMCADGTLFKVQVTSQNMGCQISDNPCGNTH [G236L] | -1.75
MAAAAAAAAEQQSSNGPVKKSMREKAVERRSVNKEHNSNFKAGYIPIDEDRLHKTGLRGRKGNLAICVIILLFILAVINLIITLVIWAVIRIGPNGCDSMEFHESGLLRFKQVSDMGVIHPLYKSTVGGRRNENLVITGNNQPIVFQQGTTKLSVENNKTSITSDIGMQFFDPRTQNILFSTDYETHEFHLPSGVKSLNVQKASTERITSNATSDLNIKVDGRAIVRGNEGVFIWGKTIEFHMGGNMELKAENSIILNGSVMVSTTRLPSSSSGDQLGSGDWVRYKLCMCADGTLFKVQVTSQNMGCQISDNPCGNTH [M235W] | 0.91
MAAAAAAAAEQQSSNGPVKKSMREKAVERRSVNKEHNSNFKAGYIPIDEDRLHKTGLRGRKGNLAICVIILLFILAVINLIITLVIWAVIRIGPNGCDSMEFHESGLLRFKQVSDMGVIHPLYKSTVGGRRNENLVITGNNQPIVFQQGTTKLSVENNKTSITSDIGMQFFDPRTQNILFSTDYETHEFHLPSGVKSLNVQKASTERITSNATSDLNIKVDGRAIVRGNEGVFIYGKTIEFHMGGNMELKAENSIILNGSVMVSTTRLPSSSSGDQLGSGDWVRYKLCMCADGTLFKVQVTSQNMGCQISDNPCGNTH [M235Y] | 0.92
MAAAAAAAAEQQSSNGPVKKSMREKAVERRSVNKEHNSNFKAGYIPIDEDRLHKTGLRGRKGNLAICVIILLFILAVINLIITLVIWAVIRIGPNGCDSMEFHESGLLRFKQVSDMGVIHPLYKSTVGGRRNENLVITGNNQPIVFQQGTTKLSVENNKTSITSDIGMQFFDPRTQNILFSTDYETHEFHLPSGVKSLNVQKASTERITSNATSDLNIKVDGRAIVRGNEGVFIVGKTIEFHMGGNMELKAENSIILNGSVMVSTTRLPSSSSGDQLGSGDWVRYKLCMCADGTLFKVQVTSQNMGCQISDNPCGNTH [M235V] | 0.18
